In patent US20220323563A1:
Read-outs that look alike come from different tables or passages of the source.

How the values were obtained:
[1] = target: Fcγ fragment of human IgG (human); assay: BLI, Ni-NTA sensor, SpA immobilised, Fc fragment of human IgG in solution
[2] = target: Fcγ fragment of human IgG (human)
[3] = target: F(ab)2 fragment of human IgG (human)
[4] = target: human IgE

Substance | Ka [1] | Ka [2] | Ka [3] | human IgE affinity [4]
SpA (wild-type protein A, recombinant five IgBDs) (from UniProt P02976 37-327) | 5.17e+07 M⁻¹ |  |  | 
SpAQ9,10K/S33E (from UniProt P02976 37-327) |  | 32.7 M⁻¹ | 41.2 M⁻¹ | 
SpAQ9,10K/S33T (from UniProt P02976 37-327) |  | 39.9 M⁻¹ | 43.5 M⁻¹ | 
SpAQ9,10K/G29F/D36,37A (from UniProt P02976 37-327) |  |  |  | 2.02e-05
